Assay results as given in PMC7817693.
pKd: −log10 of the molar value. Values joined by “and” are separate entries in the source; they are usually repeats but may differ in a detail not shown here. Identical values can stand only once.

Target: p53 (94-393) WT, thermostable deltaN (Homo sapiens) (UniProt P04637)
Assay: fluorescence polarization
Settings: FP at 25 °C, 2.5 nM FAM-dsDNA, 200 or 275 mM NaCl, 20 mM bis-tris propane pH 6.8, 5% glycerol, 0.1 mg/ml BSA, 0.5 mM TCEP, 10 min; mean of n = 2

Chain of p53 (94-393) WT, thermostable deltaN (Homo sapiens) (P04637 94-393, stated change not applied): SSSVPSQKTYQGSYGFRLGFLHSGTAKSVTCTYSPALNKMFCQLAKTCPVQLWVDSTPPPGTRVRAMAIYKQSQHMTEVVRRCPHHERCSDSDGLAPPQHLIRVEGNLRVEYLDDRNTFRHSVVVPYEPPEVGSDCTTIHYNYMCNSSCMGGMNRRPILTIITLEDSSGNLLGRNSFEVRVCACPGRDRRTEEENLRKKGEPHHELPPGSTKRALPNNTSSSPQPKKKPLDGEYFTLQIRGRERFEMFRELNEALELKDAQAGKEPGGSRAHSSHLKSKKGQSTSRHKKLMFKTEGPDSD

Row | Sequence | pKd
1 | ATGATGATAGACAAGTCAGGACTTAACTATATGATG (double strand) [MDM2 RE] | 7.70 and 7.01
2 | ATGATGATAGGCATGTCCCAACATGCCCATATGATG (double strand) [APBB2 RE] | 8.00 and 7.40
3 | ATGATGATGAACATGCCCCAGCATGTTGATATGATG (double strand) [p21_8/13] | 7.48 and 7.00
4 | ATGATGATGAACATGTCCCAACATGTTGATATGATG (double strand) [p21 RE] | 7.59 and 7.64
5 | ATGATGATGAACGTGTCCGGACAGGTCGATATGATG (double strand) [NOXA_3/13] | 7.64 and 7.22
6 | ATGATGATGAGCGTGTCCGGGCAGGTCGATATGATG (double strand) [NOXA RE] | 7.35 and 6.35
7 | ATGATGATGGGCAGGTCCGGACTTGTCGATATGATG (double strand) [BAX_8/13] | 8.10 and 7.40
8 | ATGATGATGGGCATGTCTGGGCATGTCTATATGATG (double strand) [3Q05 pdb RE] | 8.22

Same assay, conditions: inosine (written as G): strand 1 nt 21 (RE position 13); strand 2 nt 21 (opposite RE position 8); FP at 25 °C, 2.5 nM FAM-dsDNA, 200 or 275 mM NaCl, 20 mM bis-tris propane pH 6.8, 5% glycerol, 0.1 mg/ml BSA, 0.5 mM TCEP, 10 min; mean of n = 2

Row | Sequence | pKd
9 | ATGATGATGGGCAGGCCCGGGCTTGTCGATATGATG (double strand) [BAX_8/13 I/C] | 8.05 and 7.08

Same assay, conditions: inosine (written as G): strand 2 nt 21 and 11 (opposite RE positions 8 and 18); supplement also prints I at strand 1 nt 21 (RE position 13), Table 1 prints G there; FP at 25 °C, 2.5 nM FAM-dsDNA, 200 or 275 mM NaCl, 20 mM bis-tris propane pH 6.8, 5% glycerol, 0.1 mg/ml BSA, 0.5 mM TCEP, 10 min; mean of n = 2

Row | Sequence | pKd
10 | ATGATGATAGGCATGCCTAGGCATGCCTATATGATG (double strand) [6FJ5_8/18 I/C] | 8.10 and 7.24
